Changes are numbered by the printed parent chain.
T1: human ZnT8-His (human, UniProt Q8IWU4-2 1-320, limits assumed)
T1 construct: Over-expressed in HEK293 cells, solubilized with DDM and immobilized on Ni-NTA plates (native or unfolded with 2% SDS), or SDS-denatured on immunoblots; also called human ZnT8 with C-terminal poly-histidine tag; not shown: C-terminal poly-histidine tag
T1 sequence (looked up): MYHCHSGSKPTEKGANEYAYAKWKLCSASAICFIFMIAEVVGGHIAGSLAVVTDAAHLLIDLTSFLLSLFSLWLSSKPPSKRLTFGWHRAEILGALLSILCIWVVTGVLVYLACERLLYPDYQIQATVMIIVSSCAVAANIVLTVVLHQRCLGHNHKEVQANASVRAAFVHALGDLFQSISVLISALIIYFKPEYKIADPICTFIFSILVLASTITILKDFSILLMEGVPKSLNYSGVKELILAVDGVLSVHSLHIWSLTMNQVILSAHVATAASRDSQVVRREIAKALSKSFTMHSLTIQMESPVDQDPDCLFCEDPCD

T2: mouse ZnT8-His (mouse, UniProt Q8BGG0 1-367, limits assumed)
T2 construct: Over-expressed in HEK293 cells, solubilized with DDM and immobilized on Ni-NTA plates, or SDS-denatured on immunoblots; not shown: C-terminal poly-histidine tag
T2 sequence (looked up): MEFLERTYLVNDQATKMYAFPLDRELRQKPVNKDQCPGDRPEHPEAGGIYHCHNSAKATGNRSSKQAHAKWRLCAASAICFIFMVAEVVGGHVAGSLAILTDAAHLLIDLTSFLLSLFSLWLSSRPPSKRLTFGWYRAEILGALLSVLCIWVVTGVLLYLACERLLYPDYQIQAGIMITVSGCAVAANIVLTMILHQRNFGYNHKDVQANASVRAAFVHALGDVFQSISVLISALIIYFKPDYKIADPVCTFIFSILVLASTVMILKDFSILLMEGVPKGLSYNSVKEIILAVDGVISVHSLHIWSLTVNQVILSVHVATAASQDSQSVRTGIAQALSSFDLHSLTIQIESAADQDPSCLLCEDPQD

B1: mAb20 (antibody, V domains shown)
VH: QIQLVQSGPELKKPGETVKISCKASGYIFTNYPMHWVKQAPGKGLKWMGWINTYSGVPTHADDFKGRFAFSLETSANSAFLQINNLKNEDTATYFCTRSRITPTGGYAMDYWGQGTSVTVSS
VL: DVVMTQTPLSLPVSLGDQASISCRSSQSLVHSNGNTYLHWYLQKPGQSPNLLISKVSNRFSGVPERFSGSGSGTDFTLKISRVEAEDLGVYFCSQNTHVPWTFGGGTKLEIKR
notes: Mouse hybridoma mAb purified on protein A/G; In some assays it was labelled with Alexa Fluor 488 or terbium cryptate; also called monoclonal antibody mAb20; anti-ZnT8 mAb20
B2: mAb39 (antibody, V domains shown)
VH: QVQLQQPGAELVKPGASVKLSCKASGYSFTTYWMHWVKQRPGQGLEWVGDINPRNGRTNYNEKSKSKATLTVDISSSTVYMQVSSLTSEDSAVYYCAIWSGAMDYWGPGTSVTVSS
VL: B1 VL with A19P, R24K, S32N, N50K, S54Y, E65D, N96T, W101P
notes: Mouse hybridoma mAb purified on protein A/G; In some assays it was labelled with Alexa Fluor 555 or d2; also called monoclonal antibody mAb39; anti-ZnT8 mAb39

Assays:
human ZnT8-His [1] = molecular target: T1, human ZnT8-His; assay: ELISA on ZnT8-His on Ni-NTA plate, native against unfolded with 2% SDS
Source text: FIG. 4A-4C. mAb binding stabilized ZnT8 folding (FIG. 4A) mAb binding to folded or denatured ZnT8. ZnT8-His in detergent micelles was immobilized to a Ni-NTA plate in replication w/o SDS denaturation. ELISAs against denatured (triangle) and non-denatured ZnT8 (circle) were compared for mAb20 and mAb39 as indicated. CTDA and MSA were used as a positive and negative control, respectively. Error bars are standard deviations. (FIG. 4B) mAb binding to folded ZnT8-GFP in detergent micelles. mAb20 or mAb39 was mixed with ZnT8-GFP and then the binding mixture was analyzed by size-exclusion HPLC with GFP-fluorescence detection. […] (FIG. 4C) Protection of ZnT8 unfolding. Aliquots of ZnT8 in detergent micelles were incubated with Fab20 (red), Fab39 (magenta), or Fab20+Fab39 (brown). […] After a designated time of heat denaturation as indicated, protein aggregates were removed by ultracentrifugation, and the amount of remaining ZnT8 in the supernatant was detected by mAb20 immunoblotting (upper panel). […]
Folding dependence. To compare the difference in mAb bindings to native and denatured ZnT8, we used 2% SDS to unfold immobilized ZnT8-His on a Ni-NTA plate, and then compared denatured ELISA readouts with non-denatured replicates. The native readout of mAb20 was about two-fold higher than the denatured readout (FIG. 4A), indicating a moderate selectivity for folded conformation over unfolded ZnT8. […]

mouse ZnT8-His = molecular target: T2, mouse ZnT8-His; assay: ELISA titration on ZnT8-His immobilized on Ni-NTA plate; reference is human ZnT8-His; fold ratio of mouse to human apparent affinity; Ni-NTA plate titration
Source text: (§1) FIG. 7A-7D. mAb binding specificities (FIG. 7A) mAb binding to ZnT8-His immobilized to Ni-NTA plate. Bound mAb20 (red) or mAb39 (magenta) was detected by an HRP-conjugated secondary antibody. Solid lines are least-squares fits of binding datapoints to a one-component binding process. Error bars are standard errors (n=8). (FIG. 7B) SDS-denatured mouse ZnT8-His (labeled as M) and human ZnT8-His (labeled as H) on immunoblots were detected by mAb20 or mAb39 as indicated. […] (FIG. 7C) Detection of endogenous human ZnT8 in EndoC-βH cells by mAb20 or […] immunoblotting. An equal amount of EndoC-βH lysate (5 μg total protein) was loaded to each lane. (FIG. 7D) Immunoblotting of HEK lysates with or with over-expression of a ZnT homolog as indicated. An approximately equal amount of total lysate protein (5 μg) was located to each lane, probed by either mAb20, mAb39, or anti-FALG antibody as indicated. FIG. 8. HTRF response to human ZnT8, mouse ZnT8 and human ZnT3.
(§2) Binding specificities. […] Of note, the epitope-masking effect of ZnT8 immobilization weakened the apparent binding affinities of both mAbs as compared to the affinities determined by flow-cytometry, and such a weakening effect was more pronounced for mAb39, probably due to a closer proximity of the mAb39 epitope to the C-terminal His-tag. Next, we compared the immunoreactivities of mAbs to denatured ZnT8.

human ZnT8-His [2] = molecular target: T1, human ZnT8-His; assay: ELISA, ZnT8-His on Ni-NTA plate, HRP-conjugated secondary antibody; binder taken from the axis label and paragraph 166; curve taken as human
Source text: as §1, §2

Binder | ratio of native to SDS-denatured ELISA readout (human ZnT8-His [1]) | fold difference in apparent binding affinity, mouse against human ZnT8 (mouse ZnT8-His) | EC50 (read off the curve) (human ZnT8-His [2])
B1 | ~2 fold | 567 fold | 
B2 |  |  | ~10 nM

Source: US20210238279A1 (Johns Hopkins, published 2021)
